Data set [1] addresses T1, BLM-core helicase (human, UniProt P54132 642-1290). Kind of data set: fluorescence anisotropy.
Data set [2] deals with T2, RecQ helicase (E. coli, UniProt P15043 1-609). Kind of data set: fluorescence anisotropy. (In fluorescence polarisation assays a small probe gives low polarisation when free and higher when bound to something large.)
The target in data set [3] is T3, DHX36 (Bos, UniProt Q05B79 1-1010).
T3 sequence: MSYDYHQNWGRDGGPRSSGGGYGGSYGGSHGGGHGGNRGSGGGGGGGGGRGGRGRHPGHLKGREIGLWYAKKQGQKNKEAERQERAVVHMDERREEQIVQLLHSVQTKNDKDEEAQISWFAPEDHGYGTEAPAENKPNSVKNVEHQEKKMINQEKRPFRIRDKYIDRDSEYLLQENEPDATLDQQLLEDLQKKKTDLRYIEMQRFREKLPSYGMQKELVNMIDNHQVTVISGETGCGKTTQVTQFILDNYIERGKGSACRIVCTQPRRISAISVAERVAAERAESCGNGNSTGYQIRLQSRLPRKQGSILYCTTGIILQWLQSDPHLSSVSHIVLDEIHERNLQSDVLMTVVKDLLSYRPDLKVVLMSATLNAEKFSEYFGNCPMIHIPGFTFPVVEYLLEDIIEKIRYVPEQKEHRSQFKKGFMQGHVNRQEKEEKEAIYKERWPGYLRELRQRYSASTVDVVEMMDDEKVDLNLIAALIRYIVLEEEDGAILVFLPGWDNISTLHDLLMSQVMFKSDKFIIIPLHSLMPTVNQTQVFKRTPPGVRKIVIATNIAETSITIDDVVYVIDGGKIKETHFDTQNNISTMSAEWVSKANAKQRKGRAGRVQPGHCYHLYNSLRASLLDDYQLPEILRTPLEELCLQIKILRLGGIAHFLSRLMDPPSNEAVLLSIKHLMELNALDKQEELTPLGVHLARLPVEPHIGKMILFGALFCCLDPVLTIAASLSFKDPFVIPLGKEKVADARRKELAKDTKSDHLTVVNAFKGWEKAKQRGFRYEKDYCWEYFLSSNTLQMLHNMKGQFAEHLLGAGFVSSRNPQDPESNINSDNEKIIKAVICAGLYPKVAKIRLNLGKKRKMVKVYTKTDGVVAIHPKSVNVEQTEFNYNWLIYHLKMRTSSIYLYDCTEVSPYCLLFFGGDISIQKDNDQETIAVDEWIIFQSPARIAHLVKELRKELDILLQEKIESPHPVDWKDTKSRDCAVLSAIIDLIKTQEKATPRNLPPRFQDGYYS
The experiment in a line: fluorescence anisotropy.

Data set [4] concerns the target T4, Rep helicase (E. coli, UniProt P09980 1-673). The experiment in a line: fluorescence anisotropy.
Data set [5] deals with RPA (RPA1-RPA2-RPA3 heterotrimer) (human, UniProt P27694;P15927;P35244 1-616;1-270;1-121). The experiment in a line: smFRET.
RPA (RPA1-RPA2-RPA3 heterotrimer), sequence (P27694 whole entry, chain 1 of 3): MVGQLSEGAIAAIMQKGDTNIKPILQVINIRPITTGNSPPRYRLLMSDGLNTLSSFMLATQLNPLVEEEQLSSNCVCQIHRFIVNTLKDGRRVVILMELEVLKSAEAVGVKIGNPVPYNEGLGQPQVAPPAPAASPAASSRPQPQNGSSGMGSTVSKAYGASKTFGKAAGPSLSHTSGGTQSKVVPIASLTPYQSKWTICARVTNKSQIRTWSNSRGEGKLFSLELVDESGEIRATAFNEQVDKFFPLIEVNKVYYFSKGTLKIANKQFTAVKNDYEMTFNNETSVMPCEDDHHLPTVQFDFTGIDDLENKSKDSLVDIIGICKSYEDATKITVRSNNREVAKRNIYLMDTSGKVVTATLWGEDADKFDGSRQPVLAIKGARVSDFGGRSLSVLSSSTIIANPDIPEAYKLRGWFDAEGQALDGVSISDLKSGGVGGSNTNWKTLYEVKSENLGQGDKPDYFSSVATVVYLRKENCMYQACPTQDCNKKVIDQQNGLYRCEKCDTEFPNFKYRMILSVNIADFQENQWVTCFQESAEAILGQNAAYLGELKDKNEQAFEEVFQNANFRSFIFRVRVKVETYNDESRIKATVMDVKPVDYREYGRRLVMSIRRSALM
RPA (RPA1-RPA2-RPA3 heterotrimer), sequence (P15927 whole entry, chain 2 of 3): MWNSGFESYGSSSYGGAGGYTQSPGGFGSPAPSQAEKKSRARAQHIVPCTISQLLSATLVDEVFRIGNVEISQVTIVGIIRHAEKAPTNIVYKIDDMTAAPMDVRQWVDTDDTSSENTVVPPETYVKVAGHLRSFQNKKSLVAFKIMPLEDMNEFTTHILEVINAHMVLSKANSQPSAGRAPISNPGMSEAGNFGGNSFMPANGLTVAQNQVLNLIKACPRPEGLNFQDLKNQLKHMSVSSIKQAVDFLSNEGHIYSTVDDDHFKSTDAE
RPA (RPA1-RPA2-RPA3 heterotrimer), sequence (P35244 whole entry, chain 3 of 3): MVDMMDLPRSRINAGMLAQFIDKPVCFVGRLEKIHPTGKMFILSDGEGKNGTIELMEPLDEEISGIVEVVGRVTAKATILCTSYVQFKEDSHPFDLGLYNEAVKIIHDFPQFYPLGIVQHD
For data set [6], the target named is T2, RecQ helicase. The experiment in a line: smFRET.
Data set [7] concerns the target T1, BLM-core helicase. Kind of data set: smFRET.
Data set [8] deals with T3, DHX36. The experiment in a line: smFRET.
In data set [9] the target is T4, Rep helicase. The experiment in a line: smFRET.

T1 sequence (P54132 642-1290): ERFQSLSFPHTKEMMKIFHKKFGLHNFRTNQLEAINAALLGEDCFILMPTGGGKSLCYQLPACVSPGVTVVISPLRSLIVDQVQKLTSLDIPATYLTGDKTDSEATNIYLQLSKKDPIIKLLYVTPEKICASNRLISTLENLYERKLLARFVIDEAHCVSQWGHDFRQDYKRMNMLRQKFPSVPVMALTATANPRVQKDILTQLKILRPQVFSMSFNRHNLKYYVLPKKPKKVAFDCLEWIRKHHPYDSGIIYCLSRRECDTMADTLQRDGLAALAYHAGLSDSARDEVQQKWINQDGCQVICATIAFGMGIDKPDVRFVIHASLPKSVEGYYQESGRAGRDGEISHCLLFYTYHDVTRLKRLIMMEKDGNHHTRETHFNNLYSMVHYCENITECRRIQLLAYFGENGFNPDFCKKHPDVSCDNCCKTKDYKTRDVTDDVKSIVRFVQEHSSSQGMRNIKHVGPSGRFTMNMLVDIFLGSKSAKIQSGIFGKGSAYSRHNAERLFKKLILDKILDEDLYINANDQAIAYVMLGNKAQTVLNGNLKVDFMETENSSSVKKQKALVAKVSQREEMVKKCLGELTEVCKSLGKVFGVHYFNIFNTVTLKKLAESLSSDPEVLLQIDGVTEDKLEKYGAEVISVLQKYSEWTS
T4 sequence (P09980 whole entry): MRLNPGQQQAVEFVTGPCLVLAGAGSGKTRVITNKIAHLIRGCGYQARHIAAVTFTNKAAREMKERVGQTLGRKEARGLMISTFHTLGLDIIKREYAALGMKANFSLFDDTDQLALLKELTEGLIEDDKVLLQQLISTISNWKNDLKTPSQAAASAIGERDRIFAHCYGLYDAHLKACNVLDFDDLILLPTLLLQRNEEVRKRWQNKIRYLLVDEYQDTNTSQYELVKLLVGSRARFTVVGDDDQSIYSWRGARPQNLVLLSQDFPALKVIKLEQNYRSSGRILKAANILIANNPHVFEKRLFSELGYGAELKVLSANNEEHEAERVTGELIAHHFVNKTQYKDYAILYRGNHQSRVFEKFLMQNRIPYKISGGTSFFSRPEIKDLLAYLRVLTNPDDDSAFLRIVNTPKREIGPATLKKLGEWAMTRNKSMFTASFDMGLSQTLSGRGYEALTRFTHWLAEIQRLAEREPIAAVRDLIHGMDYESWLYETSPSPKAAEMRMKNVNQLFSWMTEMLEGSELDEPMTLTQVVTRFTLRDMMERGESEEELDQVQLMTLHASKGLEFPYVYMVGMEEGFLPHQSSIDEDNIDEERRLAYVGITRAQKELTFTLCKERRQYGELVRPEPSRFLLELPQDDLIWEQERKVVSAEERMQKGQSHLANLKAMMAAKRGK
T2 sequence (P15043 whole entry): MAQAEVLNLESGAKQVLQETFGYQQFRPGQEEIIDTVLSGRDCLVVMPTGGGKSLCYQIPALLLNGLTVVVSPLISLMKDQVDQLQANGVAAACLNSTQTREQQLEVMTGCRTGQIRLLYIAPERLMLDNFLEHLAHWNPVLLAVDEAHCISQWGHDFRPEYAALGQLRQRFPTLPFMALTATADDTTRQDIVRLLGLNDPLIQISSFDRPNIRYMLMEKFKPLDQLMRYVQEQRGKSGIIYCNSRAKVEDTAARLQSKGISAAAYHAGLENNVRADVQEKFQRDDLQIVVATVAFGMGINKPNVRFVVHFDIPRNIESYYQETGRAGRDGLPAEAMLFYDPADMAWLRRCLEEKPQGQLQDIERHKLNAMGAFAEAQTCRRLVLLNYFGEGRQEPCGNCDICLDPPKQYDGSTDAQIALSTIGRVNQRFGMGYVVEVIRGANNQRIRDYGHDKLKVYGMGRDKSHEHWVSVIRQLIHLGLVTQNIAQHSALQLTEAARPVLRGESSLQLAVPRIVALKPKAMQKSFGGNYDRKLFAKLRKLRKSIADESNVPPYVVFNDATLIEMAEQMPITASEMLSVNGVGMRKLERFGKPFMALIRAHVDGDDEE

As a reminder, the Kd is the free concentration of one partner at which half of the binding sites on the other are occupied at equilibrium, for simple one-to-one binding. For the molecule GGGCGCGGGAGGAAGGGGGCGGG (structured_DNA) [F-Bcl2-G4], the Kd with BLM-core helicase [1] came to 97.7 nM.
Consider CCCGCCCCCTTCCTCCCGCGCCC (structured_DNA) [F-Bcl2-IM], for which binding with BLM-core helicase [1] was characterised by a dissociation constant (Kd) of 22 nM. Also, the binding result with RecQ helicase [2], in the data set with DHX36 [3] and with Rep helicase [4] was “binds” in each case.

B1: Duplex (24nt-F/24nt) (dsDNA)
DNA 1: GCCCTGGTGCCGACCAACGAAGGT
DNA 2: ACCTTCGTTGGTCGGCACCAGGGC
Consider B1, for which, in the data set with BLM-core helicase [1], the binding result is listed as “no binding”.

B2: d27Bcl2-Mut / Stem (mixed)
DNA 1: GCGTGGCACCGGTAATAGGAAATAGGATTCTCTCTCTCTTCCTCTCTCGCTC
DNA 2: TCCTATTTCCTATTACCGGTGCCACGC
B2: the binding result in data set [5] is “binds”.

B3: d27Bcl2-IM / Stem (no loading tail) (mixed)
DNA 1: GCGTGGCACCGGTAATAGGAAATAGGATTCCCGCCCCCTTCCTCCCGCGCCCT
DNA 2: TCCTATTTCCTATTACCGGTGCCACGC
In the case of B3, the binding result with RecQ helicase [6], in the data set with BLM-core helicase [7], in the data set with DHX36 [8] and with Rep helicase [9] was “binds” throughout.

These data come from publication PMC8704484.
